Test [1] addresses PI3Kα: p110α(2-1068) W1057A/I1058A/F1059A + p85(322-600) (human, UniProt P42336 2-1068; P27986 322-600, W1057A | I1058A | F1059A). Description: ITC. Background: In ITC the heat of successive injections is recorded.
The target of test [2] is PI3Kγ(144-1102)-His6 (human, UniProt P48736 144-1102). As to the kind of experiment: ITC.

Data on two molecules can be found in article PMC11718114 (2025).

Broadly, the Kd is the constant that tells how readily two partners part at equilibrium.

Sequence of PI3Kγ(144-1102)-His6 (P48736 144-1102): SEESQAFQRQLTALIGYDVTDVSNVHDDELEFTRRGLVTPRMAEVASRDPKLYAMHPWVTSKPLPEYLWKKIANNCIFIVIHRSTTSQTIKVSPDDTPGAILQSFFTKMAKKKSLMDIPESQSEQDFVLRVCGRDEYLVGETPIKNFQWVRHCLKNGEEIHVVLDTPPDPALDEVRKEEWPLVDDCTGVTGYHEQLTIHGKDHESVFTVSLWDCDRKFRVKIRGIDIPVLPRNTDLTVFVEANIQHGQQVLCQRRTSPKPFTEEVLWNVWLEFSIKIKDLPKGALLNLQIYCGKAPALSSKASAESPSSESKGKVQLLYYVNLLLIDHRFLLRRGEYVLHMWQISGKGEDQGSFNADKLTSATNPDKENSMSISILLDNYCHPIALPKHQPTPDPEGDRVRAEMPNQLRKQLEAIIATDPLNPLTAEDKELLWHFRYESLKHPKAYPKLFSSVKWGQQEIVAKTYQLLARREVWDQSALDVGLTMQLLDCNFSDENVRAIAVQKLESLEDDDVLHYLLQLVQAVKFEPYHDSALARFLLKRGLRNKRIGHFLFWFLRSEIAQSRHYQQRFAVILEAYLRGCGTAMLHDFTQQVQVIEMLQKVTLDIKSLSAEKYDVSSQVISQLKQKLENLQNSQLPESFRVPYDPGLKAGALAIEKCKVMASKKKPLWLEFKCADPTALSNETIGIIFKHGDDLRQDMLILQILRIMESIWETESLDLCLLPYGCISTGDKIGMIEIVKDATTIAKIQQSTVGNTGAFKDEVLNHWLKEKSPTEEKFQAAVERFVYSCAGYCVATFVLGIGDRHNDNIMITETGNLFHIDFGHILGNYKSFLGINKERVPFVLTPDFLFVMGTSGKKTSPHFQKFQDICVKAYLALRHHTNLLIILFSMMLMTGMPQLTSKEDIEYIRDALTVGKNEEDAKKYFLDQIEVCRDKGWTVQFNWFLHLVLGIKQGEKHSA

B1: RRAS(22-192) (domain or fragment)
chain: GDPPPSETHKLVVVGGGGVGKSALTIQFIQSYFVSDYDPTIEDSYTKICSVDGIPARLDILDTAGQEEFGAMREQYMRAGHGFLLVFAINDRQSFNEVGKLFTQILRVKDRDDFPVVLVGNKADLESQRQVPRSEASAFGASHHVAYFEASAKLRLNVDEAFEQLVRAVRK
With B1, the Kd in test [1] turned out to be 27.6 µM.

B2: RRAS2 (wild type) (domain or fragment)
chain: MAAAGWRDGSGQEKYRLVVVGGGGVGKSALTIQFIQSYFVTDYDPTIEDSYTKQCVIDDRAARLDILDTAGQEEFGAMREQYMRTGEGFLLVFSVTDRGSFEEIYKFQRQILRVKDRDEFPMILIGNKADLDHQRQVTQEEGQQLARQLKVTYMEASAKIRMNVDQAFHELVRVIRKFQ
On to B2, for which the affinity in test [2], expressed as Kd, was 5.5 µM.
